Measured values from article PMC9082959, “Mechanism of Assembly of the Non-Covalent Spectrin Tetramerization Domain from Intrinsically Disordered Partners” (Journal of molecular biology, 2013).

Key:
[1] = target: T1, β16β17 (erythrocyte β-spectrin residues 1898–2083), wild type (human, UniProt P11277 1898-2083); test: ITC; β16β17 at 25–50 μM in the cell titrated with 15–20 injections to 2–2.5 eq of α0α1; one-site binding model; PBS (50 mM sodium phosphate, 150 mM NaCl, pH 7.04), 25 °C; mutants only against the wild-type partner; conditions: both partners purified
T1 construct: erythrocyte β-spectrin, human, residues 1898-2083 (β16 plus the incomplete 17th domain); synthetic gene (GenScript) in a modified pRSETA plasmid; source: E. coli C41(DE3), purified (Ni2+ agarose, thrombin cleavage, gel filtration)
T1 sequence (looked up): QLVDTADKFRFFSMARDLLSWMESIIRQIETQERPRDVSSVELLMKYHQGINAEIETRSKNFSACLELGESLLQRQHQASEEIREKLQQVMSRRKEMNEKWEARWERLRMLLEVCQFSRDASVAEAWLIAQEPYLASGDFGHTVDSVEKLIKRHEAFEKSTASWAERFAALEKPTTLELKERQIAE

[2] = target: T1, β16β17 (erythrocyte β-spectrin residues …); test: as above; conditions: both partners purified; remark: listed apart in the source

B1: α0α1 E85A (domain or fragment, human, UniProt P02549 2-163, looked up)
chain: EQFPKETVVESSGPKVLETAEEIQARRQEVLTRYQSFKERVAERGQKLEDSYHLQVFKRDADDLGKWIMEKVNILTDKSYEDPTNIQGKYQKHQSLEAEVQTKSRLMSELEKTREERFTMGHSAHEETKAHIEELRHLWDLLLELTLEKGDQLLRALKFQQY
notes: mutant of m1; also called E26A; source: E. coli C41(DE3), purified (Ni2+ agarose, thrombin cleavage, gel filtration)
[1]
  Ka: 1.2e+06 M⁻¹

B2: α0α1 E99A (domain or fragment, human, UniProt P02549 2-163, looked up)
chain: EQFPKETVVESSGPKVLETAEEIQERRQEVLTRYQSFKARVAERGQKLEDSYHLQVFKRDADDLGKWIMEKVNILTDKSYEDPTNIQGKYQKHQSLEAEVQTKSRLMSELEKTREERFTMGHSAHEETKAHIEELRHLWDLLLELTLEKGDQLLRALKFQQY
notes: mutant of m1; also called E40A; source: E. coli C41(DE3), purified (Ni2+ agarose, thrombin cleavage, gel filtration)
[1]
  Ka: 900000 M⁻¹

B3: α0α1 Y94L (domain or fragment, human, UniProt P02549 2-163, looked up)
chain: EQFPKETVVESSGPKVLETAEEIQERRQEVLTRLQSFKERVAERGQKLEDSYHLQVFKRDADDLGKWIMEKVNILTDKSYEDPTNIQGKYQKHQSLEAEVQTKSRLMSELEKTREERFTMGHSAHEETKAHIEELRHLWDLLLELTLEKGDQLLRALKFQQY
notes: mutant of m1; also called Y35L; source: E. coli C41(DE3), purified (Ni2+ agarose, thrombin cleavage, gel filtration)
[2]
  Ka: 4.4e+06 M⁻¹

B4: α0α1 E103G (domain or fragment, human, UniProt P02549 2-163, looked up)
chain: EQFPKETVVESSGPKVLETAEEIQERRQEVLTRYQSFKERVAGRGQKLEDSYHLQVFKRDADDLGKWIMEKVNILTDKSYEDPTNIQGKYQKHQSLEAEVQTKSRLMSELEKTREERFTMGHSAHEETKAHIEELRHLWDLLLELTLEKGDQLLRALKFQQY
notes: mutant of m1; also called E44G; source: E. coli C41(DE3), purified (Ni2+ agarose, thrombin cleavage, gel filtration)
[1]
  Ka: 220000 M⁻¹

B5: α0α1 Q106A (domain or fragment, human, UniProt P02549 2-163, looked up)
chain: EQFPKETVVESSGPKVLETAEEIQERRQEVLTRYQSFKERVAERGAKLEDSYHLQVFKRDADDLGKWIMEKVNILTDKSYEDPTNIQGKYQKHQSLEAEVQTKSRLMSELEKTREERFTMGHSAHEETKAHIEELRHLWDLLLELTLEKGDQLLRALKFQQY
notes: mutant of m1; also called Q47A; source: E. coli C41(DE3), purified (Ni2+ agarose, thrombin cleavage, gel filtration)
[1]
  Ka: 1.3e+06 M⁻¹

B6: α0α1 L91A (domain or fragment, human, UniProt P02549 2-163, looked up)
chain: EQFPKETVVESSGPKVLETAEEIQERRQEVATRYQSFKERVAERGQKLEDSYHLQVFKRDADDLGKWIMEKVNILTDKSYEDPTNIQGKYQKHQSLEAEVQTKSRLMSELEKTREERFTMGHSAHEETKAHIEELRHLWDLLLELTLEKGDQLLRALKFQQY
notes: mutant of m1; also called L32A; source: E. coli C41(DE3), purified (Ni2+ agarose, thrombin cleavage, gel filtration)
[2]
  Ka: 1.3e+06 M⁻¹

B7: α0α1 Y94A (domain or fragment, human, UniProt P02549 2-163, looked up)
chain: EQFPKETVVESSGPKVLETAEEIQERRQEVLTRAQSFKERVAERGQKLEDSYHLQVFKRDADDLGKWIMEKVNILTDKSYEDPTNIQGKYQKHQSLEAEVQTKSRLMSELEKTREERFTMGHSAHEETKAHIEELRHLWDLLLELTLEKGDQLLRALKFQQY
notes: mutant of m1; also called Y35A; source: E. coli C41(DE3), purified (Ni2+ agarose, thrombin cleavage, gel filtration)
[2]
  Ka: 670000 M⁻¹

B8: α0α1 E103A (domain or fragment, human, UniProt P02549 2-163, looked up)
chain: EQFPKETVVESSGPKVLETAEEIQERRQEVLTRYQSFKERVAARGQKLEDSYHLQVFKRDADDLGKWIMEKVNILTDKSYEDPTNIQGKYQKHQSLEAEVQTKSRLMSELEKTREERFTMGHSAHEETKAHIEELRHLWDLLLELTLEKGDQLLRALKFQQY
notes: mutant of m1; also called E44A; source: E. coli C41(DE3), purified (Ni2+ agarose, thrombin cleavage, gel filtration)
[1]
  Ka: 810000 M⁻¹

B9: α0α1 Q95A (domain or fragment, human, UniProt P02549 2-163, looked up)
chain: EQFPKETVVESSGPKVLETAEEIQERRQEVLTRYASFKERVAERGQKLEDSYHLQVFKRDADDLGKWIMEKVNILTDKSYEDPTNIQGKYQKHQSLEAEVQTKSRLMSELEKTREERFTMGHSAHEETKAHIEELRHLWDLLLELTLEKGDQLLRALKFQQY
notes: mutant of m1; also called Q36A; source: E. coli C41(DE3), purified (Ni2+ agarose, thrombin cleavage, gel filtration)
[1]
  Ka: 2.29e+06 M⁻¹

B10: α0α1 R87G (domain or fragment, human, UniProt P02549 2-163, looked up)
chain: EQFPKETVVESSGPKVLETAEEIQERGQEVLTRYQSFKERVAERGQKLEDSYHLQVFKRDADDLGKWIMEKVNILTDKSYEDPTNIQGKYQKHQSLEAEVQTKSRLMSELEKTREERFTMGHSAHEETKAHIEELRHLWDLLLELTLEKGDQLLRALKFQQY
notes: mutant of m1; also called R28G; source: E. coli C41(DE3), purified (Ni2+ agarose, thrombin cleavage, gel filtration)
[1]
  Ka: 4e+06 M⁻¹

B11: α0α1 E99G (domain or fragment, human, UniProt P02549 2-163, looked up)
chain: EQFPKETVVESSGPKVLETAEEIQERRQEVLTRYQSFKGRVAERGQKLEDSYHLQVFKRDADDLGKWIMEKVNILTDKSYEDPTNIQGKYQKHQSLEAEVQTKSRLMSELEKTREERFTMGHSAHEETKAHIEELRHLWDLLLELTLEKGDQLLRALKFQQY
notes: mutant of m1; also called E40G; source: E. coli C41(DE3), purified (Ni2+ agarose, thrombin cleavage, gel filtration)
[1]
  Ka: 800000 M⁻¹

B12: α0α1 T92A (domain or fragment, human, UniProt P02549 2-163, looked up)
chain: EQFPKETVVESSGPKVLETAEEIQERRQEVLARYQSFKERVAERGQKLEDSYHLQVFKRDADDLGKWIMEKVNILTDKSYEDPTNIQGKYQKHQSLEAEVQTKSRLMSELEKTREERFTMGHSAHEETKAHIEELRHLWDLLLELTLEKGDQLLRALKFQQY
notes: mutant of m1; also called T33A; source: E. coli C41(DE3), purified (Ni2+ agarose, thrombin cleavage, gel filtration)
[1]
  Ka: 670000 M⁻¹

B13: α0α1 E85G (domain or fragment, human, UniProt P02549 2-163, looked up)
chain: EQFPKETVVESSGPKVLETAEEIQGRRQEVLTRYQSFKERVAERGQKLEDSYHLQVFKRDADDLGKWIMEKVNILTDKSYEDPTNIQGKYQKHQSLEAEVQTKSRLMSELEKTREERFTMGHSAHEETKAHIEELRHLWDLLLELTLEKGDQLLRALKFQQY
notes: mutant of m1; also called E26G; source: E. coli C41(DE3), purified (Ni2+ agarose, thrombin cleavage, gel filtration)
[1]
  Ka: 830000 M⁻¹

B14: α0α1 R104A (domain or fragment, human, UniProt P02549 2-163, looked up)
chain: EQFPKETVVESSGPKVLETAEEIQERRQEVLTRYQSFKERVAEAGQKLEDSYHLQVFKRDADDLGKWIMEKVNILTDKSYEDPTNIQGKYQKHQSLEAEVQTKSRLMSELEKTREERFTMGHSAHEETKAHIEELRHLWDLLLELTLEKGDQLLRALKFQQY
notes: mutant of m1; also called R45A; source: E. coli C41(DE3), purified (Ni2+ agarose, thrombin cleavage, gel filtration)
[2]
  Ka: 6.7e+06 M⁻¹

B15: α0α1 Q106G (domain or fragment, human, UniProt P02549 2-163, looked up)
chain: EQFPKETVVESSGPKVLETAEEIQERRQEVLTRYQSFKERVAERGGKLEDSYHLQVFKRDADDLGKWIMEKVNILTDKSYEDPTNIQGKYQKHQSLEAEVQTKSRLMSELEKTREERFTMGHSAHEETKAHIEELRHLWDLLLELTLEKGDQLLRALKFQQY
notes: mutant of m1; also called Q47G; source: E. coli C41(DE3), purified (Ni2+ agarose, thrombin cleavage, gel filtration)
[1]
  Ka: 200000 M⁻¹

B16: α0α1 T92G (domain or fragment, human, UniProt P02549 2-163, looked up)
chain: EQFPKETVVESSGPKVLETAEEIQERRQEVLGRYQSFKERVAERGQKLEDSYHLQVFKRDADDLGKWIMEKVNILTDKSYEDPTNIQGKYQKHQSLEAEVQTKSRLMSELEKTREERFTMGHSAHEETKAHIEELRHLWDLLLELTLEKGDQLLRALKFQQY
notes: mutant of m1; also called T33G; source: E. coli C41(DE3), purified (Ni2+ agarose, thrombin cleavage, gel filtration)
[1]
  Ka: 3.3e+06 M⁻¹

B17: α0α1 Q88A (domain or fragment, human, UniProt P02549 2-163, looked up)
chain: EQFPKETVVESSGPKVLETAEEIQERRAEVLTRYQSFKERVAERGQKLEDSYHLQVFKRDADDLGKWIMEKVNILTDKSYEDPTNIQGKYQKHQSLEAEVQTKSRLMSELEKTREERFTMGHSAHEETKAHIEELRHLWDLLLELTLEKGDQLLRALKFQQY
notes: mutant of m1; also called Q29A; source: E. coli C41(DE3), purified (Ni2+ agarose, thrombin cleavage, gel filtration)
[2]
  Ka: 1e+06 M⁻¹

B18: α0α1 V101A (domain or fragment, human, UniProt P02549 2-163, looked up)
chain: EQFPKETVVESSGPKVLETAEEIQERRQEVLTRYQSFKERAAERGQKLEDSYHLQVFKRDADDLGKWIMEKVNILTDKSYEDPTNIQGKYQKHQSLEAEVQTKSRLMSELEKTREERFTMGHSAHEETKAHIEELRHLWDLLLELTLEKGDQLLRALKFQQY
notes: mutant of m1; also called V42A; source: E. coli C41(DE3), purified (Ni2+ agarose, thrombin cleavage, gel filtration)
[2]
  Ka: 100000 M⁻¹

B19: α0α1 Q95G (domain or fragment, human, UniProt P02549 2-163, looked up)
chain: EQFPKETVVESSGPKVLETAEEIQERRQEVLTRYGSFKERVAERGQKLEDSYHLQVFKRDADDLGKWIMEKVNILTDKSYEDPTNIQGKYQKHQSLEAEVQTKSRLMSELEKTREERFTMGHSAHEETKAHIEELRHLWDLLLELTLEKGDQLLRALKFQQY
notes: mutant of m1; also called Q36G; source: E. coli C41(DE3), purified (Ni2+ agarose, thrombin cleavage, gel filtration)
[1]
  Ka: 2e+06 M⁻¹

B20: α0α1 F97A (domain or fragment, human, UniProt P02549 2-163, looked up)
chain: EQFPKETVVESSGPKVLETAEEIQERRQEVLTRYQSAKERVAERGQKLEDSYHLQVFKRDADDLGKWIMEKVNILTDKSYEDPTNIQGKYQKHQSLEAEVQTKSRLMSELEKTREERFTMGHSAHEETKAHIEELRHLWDLLLELTLEKGDQLLRALKFQQY
notes: mutant of m1; also called F38A; source: E. coli C41(DE3), purified (Ni2+ agarose, thrombin cleavage, gel filtration)
[2]
  Ka: 58000 M⁻¹
